For orientation: EC50 means the concentration at which the effect is half-maximal.

Experimental findings from PMC3864954 are described below.

Common to all, as to test: ELISA; APP fragment (12.2 nM, 50 µL/well) plated at 4°C overnight; p75^NTR ECD-Fc or IgG-Fc added at the indicated concentrations for 2 h at room temperature; detected by anti-human IgG-Fc; EC50 from sigmoid dose-response curve
On the technique in general: An ELISA detects its analyte on a solid surface through an enzyme-linked reagent.

Assay [1] deals with C-sAPPα (sAPPα 304–612), recombinant, His-tagged (UniProt P05067).
The target of assay [2] is sAPPβ, recombinant, His-tagged.
The target in assay [3] is Soluble β-amyloid Precursor Protein Alpha (sAPPα), recombinant, His-tagged (UniProt P05067).

On to “recombinant p75^NTR extracellular domain fused to human Fc (p75^NTR ECD-Fc) chimera protein (from UniProt P08138 29-250) (Fc fusion)”, for which the EC50 worked out at 150 nM in assay [1], 120 nM in assay [2] and 90 nM in assay [3].
